In the NTF2 design screens of Basanta et al. (2020):

Test: protease stability score; higher = more stable; yeast display proteolysis, trypsin and chymotrypsin;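 further: relative to predicted unfolded state with 0 unfolded-like and 1 meaning tenfold more protease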

SREEELAKKLLEIYSRSVETGDWKKLFELMDPNTRVEQGEWHFHGREEFHKLVHKFLERADVVHVEIDRIKVIGDFVHIDVVLHIHQGEFHHVVRTRLDYLKFNGRWVLQTIRIE
protease stability score: 1.6

SREEKEIKEIWELLVRSWLTGDEETLTHLLDPNARSVINGREYHGRETIAHELTRHLYELRIKDIELHHVDIIGDKVKIDSRVEYHFNGRETELKVEIVALKINGRWRLKDNIIK
protease stability score: 1.47

SREHKEAEDALRQWLETLRTGDERTMHELFDPNVRLHINGKEIHGREKVLTQLEHELKRFKNVRYELESIDITEHHVRVFGTSHVNGVEEKLEIVILKWDGRWRVQELYVHRV
protease stability score: 1.67

SRESEEAKDDWEKIINDLRTGDFRSLRELFDPNVRLETENHEFHGWETAEHMVKRFDHIHVRREHFDHIEIQGEKVILDGTMRMEFIINGVVYEKEQRVIIIFLKYNGRWLIKEVEFI
protease stability score: 0.759

SRIEKLIEHLVHLWLEIWRTGDEHSFTRLLDPHVRLRIGDKHFIGREDVVKFLRDHEKEWREDDVEIRDIRTQGDFLEVEITITGRFNGRDITREFRITMIVVDGRVKEIRISYE
protease stability score: 2.05

SRKDEHTHHLLHLFWEIFMTGDEERWTQLLDPNMRTEIDGKDLHGREDAIRFMIERLRQLGFDHMRLHHLENQGEKAHIDGTLEVGDKLVRVHFSTKIVNGRIKELTIKFH
protease stability score: 1.02

SSDKRDAHFAMDLYYEIHLTGDEDRWRHMADPNVRLHVGEKDFHGRELWFKFMHDFGLDKIEIELKDIEVQGEKVHLDGIIRFDGREHKVEVDLRKINGRWIIDEERYK
protease stability score: 1.13

SSEEEDIEWATEVLVMSFITGDWKLSHKLMDPNVLSIVNGREFHGRELAVKHLHEMTEKIKGLRIETHDLKHINIFNGRARVHSIVRGDINGRKVDSMIDVITNKFDGRWVIESVQFI
protease stability score: 1.45

SSEEHDAKNMHKMFREAMMTGDEDLLKNLLDPHVRLTFNGKDFHGWDRVYELFRKRLEHLGITWKDWDLHIIETQGDKVELNSTLHGRVGDKHVDDHTTLFIRKIDGQWVLTEVRIG
protease stability score: 1.46

SSEEKRDKDAVELFLKILHTGNFELFRELFDPNTRWEYGDKELIGMELIVTWWFEFVRDRGVEVELHRIDRINGRVVLETTMRIGDKQTSTHVHVIVINGVFHEVRFRFH
protease stability score: 1.29

SSHEEYMIRLVLQIIRLYLTGDEETIRKMADPNTYMKITIGDKDIEAHGREDVIRVREEIRKQIRIHHVDVTSIKVIDGRLVIHGILDGEYDGKRDEVDVRIEIIIVNGKWTSEHARVH
protease stability score: 1.05

SSQEKFLKELVEIWVELWRTGNEEAFKRLADPDAKNDVNGVYSHGMENVEKLLKHFGIKHVEINDVKVQGDKVIMDGIIEFNGVTIKEHVEIVIVNGRFKELRIRRE
protease stability score: 0.788

STEEEEAKKFSDIVLKAFDTGDEDLYRDLADPDTRSIINGVEKHGWKDIARHIKRIDHSDTHWDRVEMRVVNGQARVHVKGHIDVTIDGQRFVLRVTWHIIVTKIDGRWHLEELSLEVS
protease stability score: 1.31

STEEEELRDYLEILDHLWKTGDFDRLLNLIDPHVRLEVNGREHHGMRWFETIIRKLGHDNISVHINNEKVHIVDGRAHWEGKKILIYDGRFHDFHTHLFFLKIDGKWKLKEVEYH
protease stability score: 1.26

STEEREVYEWVHELLNAFNTGDEDFYYERMDPHVRFESQFNGKELDIVGREKVLKWTKTFWDDLGVDHSKLRSFRIQGDKLILHMEVTINGRHIQVDFFHVIVDGKLHSEEIRIH
protease stability score: 0.649

STLEEHVFRMAYEIITDLETGDEEYYKKRADPDMYVHIRIGDKEVEIHGREHFIQWVKRLFEEIRIHWRIRDMHIVDGVYRFHTELEIRIGDKEHRIKSEVKVVVVNGKIKQLEIRIK
protease stability score: 2

STREEETRRISDMIVKSLMTGDWRTFHDLLDPNVKVEINGKEMHGWKAWEDYIREMGIKVFDYHRIEVDENHLLMDGIDKVDGREHRSHYEITIIDGRIRRVEIRHK
protease stability score: 1.1

SYHEKEALDLYRMTIHNYLTGDWKEWHRLFDPHVRIRIGDKELHGMENFAKWEEDLEKDLGVDHVEIRLRDMEVQGDKFTSDGELRLHIDGRTIRHKVEFHLEVINGRIKSHRINIH
protease stability score: 1.04

TDDEEIWKIAIKMLRSAMHTGDEDTIKHLLDPNVRIEINGREIIGREIYAKHLREIRVDVERWEDHHIEVQGEFMHVKGRVVLTEEINGQEVREDVKLHVLVLKIDGQWRITSLYFR
protease stability score: 0.754

TDDEREAVRFSEEVMHSFITGDEEHLDRLMDPNTKLTVNGKEIHGRQDVLEFIKRYRRELGVKYSEFVVHSVDDFDGRLRNNTELNINVDGKHIRLDTRVDMIKFNGRWQLHSIRFD
protease stability score: 1.44

TDEDEAAELIIRLLEELHHTGDEDKLRDLMDPHVRMDIDGKDFHGRETYLEHLHHRLVNWGVDRIKVEIRLKHSEIQGEKLILETDWIVIFDGVRYEMKVRLILIKVNGRWVLKSSHFK
protease stability score: 1.32

TDEDRELHEAAELLIESTWTGDFDFLLELLDPNVRLVINGKHDHGREDIWEVLRRLLERLGLDRVRVKIKHIDSFDGRLHLNINLNFNGRQFRYHYESYKVNGQWVVRRIEVREK
protease stability score: 1.89

TDEEELAERLARIMIHLFLTGNEEIMSKLLDPDVRSWVNGQEFHGREEEAKVVRKMIEEWRFHDMHIHDVHVINGRLHVDSRVDNRVGDKTIDIRTELRFDVVNGRLKILEWHFT
protease stability score: 0.341

TDEEELLHRILDEIEKALLTGDEDIIHRLFDPHVRFHVNGRHIVGRHEWSRWVNDHRKRFKNIQIRMRVEEKDVIDGRMHSRTKLHIIFNGVRYEITQEINIDVIDGRLKNVIVHDE
protease stability score: 0.725

TDEEEMLRNFWHELIHALHTGDEELFEELADPDTRWYFENRVVIGRETVRNMIDELRIKEVRVERMRIQGDKFHAKLTQRGQINGREVNTETNLHVDIYNGRLKSVELRVK
protease stability score: 0.888

TDEEKETEEHRKHFEHYERTGDWRELERLFDPNARLIIGDKILHGRELVTRWMFEFVKEMRINHIELHTMEIQGEKIHLDITVHVKFNGQERDIRVTEIHKKFDGRWTIEQIHFN
protease stability score: 1.46

TDEEKSVEELLEKIEHANDTGDFELHKRLADPHVRVLVNGVELHGRHVLMEWLRELFERFKNVTFRLNLREVEFQGEWVFLRIELTVHVNGRTHHHDSIYIIHKVDGRWHITEVRFH
protease stability score: 1.34

TDEKRDLDDWLHLLLHAIRTGDFRIEEKLADPNARLEFNGKEFIGMHHILNFLIEWRLHHMDIKHIEKQGDYLHIDSRLDVDFDGQRTILETHLVSLKINGRWILHSMSIG
protease stability score: 1.28

TDERDRYKHFLHLFRHLIKTGDEDVLANNADPHVKFHIHIGDKEREHHGMESMVKIFKEWRIHHLHIESFDVQGDKLIALVHVDGIINGRHHSTTVNIILTFVNGREKEVNIHLT
protease stability score: 1.74

TDKEEETKENAEKLTKHILTGNWEEFFNLADPNVRMHIQQGDKRINRHGREDAYHEYKDLERNLGIDHMHIKDIRVQGDWVHIHLEYRYGDKRFEVEIVLLIVDGRLTEVNVTIR
protease stability score: 1.09

TDLEELFDYAIDLLRSLLLTGDEHMSVRLADPNTKLEVNGRYIHGREKFREWFRWFLEHLRFDHLHIHSVETQGDYAFMDSRVHLRYGDKVIEFITHQIVLKFDGRWYLHSMEIR
protease stability score: 0.587

TDLKEYVERMLELLRKAIETGDETTLTKLVDPHVRLEVNGREFHGWKFWHMIVREIRMRDLELHHVEIQGDKMEVDGTLHLEINGKDDYRKVRLIAEKFDGRWVFTSVHFE
protease stability score: 1.72

TDRHEIIIHRMKRLMLMELTGDEKLWERLVDPDVRIIFIFNGRRHEFHGREKALERLHDWWDHLRIDHLEVRRYDVINGRARTDMESHDTYDGQHYVIKFELVVQVIDGRVHSVEMIFK
protease stability score: 1.44

TDVEEQVHVAIELHLRTLLTGDEHLSEKLADPHVRILIDGQDYHGRTEWVKWIHTFHKRVDHHQIDVTTLSVQGDKIRIHFELKLHVNGVDLRFHILLIIEKYNGVWIMSEVHIS
protease stability score: 1.67

TEDDEHLEEEAEEYKEYVRTGDWKKIFELADPHTKIDIGNYKRHGMEDFLRDVIHVYTKLGVTIEHHVHDVRVINGRAHVNMEVRVHYGEKDERIKTTLIMRKVDGRWKLTSIHFK
protease stability score: 1.15

TEDDEILREALEIWRYVEQTGDEEDTHRMVDPHAKMIFNGKEIHGREHISRWMKEIRIHELRVHSFRVIDGRLILEVELVGRFNGREDTIEVEIISEKVDGRWVVSSLTIR
protease stability score: 1.29

TEDDELEKWATQLVKEVLETGDERLLENLADPNVRVEIGEKDSHGREEMLKDWKHMGIDHIHFEHSEFVGDFIDIHLVIHVNGKDLKQRIIILKIDGQWFLHSVHVE
protease stability score: 1.75

TEDDELLHRAERLVYHSLLTGDFHTLKHLMDPHVRTHIDGRDTHGRDKATNFFIKYWEDLGVKHITYEDMHVHFFEGHLTVLLIVKLNIDGRERRNVYIFIFMKIDGKWLNHEVHIHIN
protease stability score: 0.651

TEDDENAKMIMHLLYNHMKTGDFDTLVDMVDPHARNIIDGRELVGWEHFYRWLHELGFNHNELRVRDIKHFDGKVDVDVELILNVGDKHLRIRTTFIVRKVNGRWFIESIRLK
protease stability score: 1.38

TEDDEWFNEILRLMVEAMKTGDEHILERLLDPHVRIEINGKEIHGREEFVERLEEQQRKFKGIRHELEIKHTEVINGRAHIDGRLHIDVNGRRKIYRVELVILKIDGRWSVEEIRIH
protease stability score: 1.67

TEDDHKFEEAMRLWEHIEKTGDPHTASKMLDPNVRIYINGRELHGRHLFEHLEEHWLLELRLKHVQIQHIEVIDGRLEFDVEVNGQQGDKDIRMRVNVTVHKIDGRWFLKMVSFE
protease stability score: 0.705

TEDDKDWEEIYKMLEHASKTGDERIFNKFIDPNTMSVVNGVDLIGMERWRNHWEHARFRHIEFRHVEIIDGRLDIQGHLRGEYNGREIRTDMRLIILKIDGRWIHKSFEFH
protease stability score: 0.944

TEDDRAFELSMRKWLESHRTGDEKTMHELLDPNARYHIGEFHLHGWKEADRLVREIRIHHVEDKHVEIQGDKIRIHTRVDITINGQKSSVELELVLVKVNGVWFVHSVILR
protease stability score: 1.8

TEDDRDFKLALELVEHHIKTGDEDDMSRLADPHVRIDDENETHHGREEFEEFVHRMIKRFKNIKWELKRTESQGDKIRIDFRIHVGDKTLRLIIIAEKVDGRWLIHTVIIN
protease stability score: 1.35

TEDDRIFKEALELWVFAMNTGDERILFEMVDPHVRFVIGDKEYHGMEWRHKVLIELRIHRVRLEITHRDQFNGRIHIDGILQIDGEFNGRRDKTETEVRVTYTKFDGKWYYKEVIHL
protease stability score: 1.44

TEDEDIFRHALEVWLRSFLTGNEEILNHLFDPHARVHIDGKNLHGMEMMVTHRQRHIEEARIRDSDIEHKNVIDGRIHIDIRVHGEVNGQEMDFNVTIIAMKVDGRWLIHSLHVE
protease stability score: 0.265

TEDEDRLTEMIEELLHALLTGDEKRKDELIDPHTKLDVNGRERHGMEEIKKNWRKLGVERIDLRVRERRIVNGVAHIRGDLHVGDKSMEVHIVFVKVDGRWIVHSFFIH
protease stability score: 1.31

TEDEDVLKEATRLFVEALKTGDWDHMRRLIDPNARVTQGDKEIHGMEDTVKIRRHLYEKWGVERVEMRIHDMEYQGDKLKVDMELQIGDKHKRIELVLRKVDGQWIIERIRYT
protease stability score: 0.528

TEDEDYMHDATREFVTNVATGDEDRLRELMDPRTRHVYNGVRLHGRNLALEFWTHFRRELGVDHIEIRIRDLKFQGDYIHLHTEIVMDFNGVRIIYDTFVRVRKFNGQWMLQSSEIH
protease stability score: 0.194

TEDEEAAERMIKTWLEKIITGNEEFLTEFMDPDTKVDINGKELHGWEDILQHLRHIRVHDMHVEIEDVRFINGVIEIRGTMHKDGEVNGRRTQTEQHVVFVLQKIDGRWRLRSYSIR
protease stability score: 2.27
